Numbering of substitutions follows the chain as printed. In names and notes the source's numbering stands.
B1: I10T C11S A13D A15I E16R A17S: Gaussia luciferase mutant (protein)
chain: MGVKVLFALTSIDVIRSKPTENNEDFNIVAVASNFATTDLDADRGKLPGKKLPLEVLKEMEANARKAGCTRGCLICLSHIKCTPKMKKFIPGRCHTYEGDKESAQGGIGEAIVDIPEIPGFKDLEPMEQFIAQVDLCVDCTTGCLKGLANVQCSDLLKKWLPQRCATFASKIQGQVDKIKGAGGD
modifications: SIGNAL (1)..(17)
notes: Gaussia luciferase mutant
B2: A42G Q152C T167G S170T G174N K178S A182Y G183A: Gaussia luciferase mutant (protein)
chain: MGVKVLFALICIAVAEAKPTENNEDFNIVAVASNFATTDLDGDRGKLPGKKLPLEVLKEMEANARKAGCTRGCLICLSHIKCTPKMKKFIPGRCHTYEGDKESAQGGIGEAIVDIPEIPGFKDLEPMEQFIAQVDLCVDCTTGCLKGLANVCCSDLLKKWLPQRCAGFATKIQNQVDSIKGYAGD
modifications: SIGNAL (1)..(17)
notes: Gaussia luciferase mutant
B3: A17V H79K P84A E102D S103T E110P L124M: Gaussia luciferase mutant (protein)
chain: MGVKVLFALICIAVAEVKPTENNEDFNIVAVASNFATTDLDADRGKLPGKKLPLEVLKEMEANARKAGCTRGCLICLSKIKCTAKMKKFIPGRCHTYEGDKDTAQGGIGPAIVDIPEIPGFKDMEPMEQFIAQVDLCVDCTTGCLKGLANVQCSDLLKKWLPQRCATFASKIQGQVDKIKGAGGD
modifications: SIGNAL (1)..(17)
notes: Gaussia luciferase mutant
B4: H79K P84L S103T A104G E110A: Gaussia luciferase mutant (protein)
chain: B3 chain with V17A, A84L, D102E, A104G, P110A, M124L
modifications: SIGNAL (1)..(17)
notes: Gaussia luciferase mutant
B5: H79K P84A E102S S103I A104G E110P L124M: Gaussia luciferase mutant (protein)
chain: B3 chain with V17A, D102S, T103I, A104G
modifications: SIGNAL (1)..(17)
notes: Gaussia luciferase mutant
B6: H79K P84L V138D: Gaussia luciferase mutant (protein)
chain: B3 chain with V17A, A84L, D102E, T103S, P110E, M124L, V138D
modifications: SIGNAL (1)..(17)
notes: Gaussia luciferase mutant
B7: H79K P84K E102K S103I V138E: Gaussia luciferase mutant (protein)
chain: B3 chain with V17A, A84K, D102K, T103I, P110E, M124L, V138E
modifications: SIGNAL (1)..(17)
notes: Gaussia luciferase mutant
B8: F26V N27Y V29N A30D V31D D32L S33R A36R T37W L40Y K180R: Gaussia luciferase mutant (protein)
chain: MGVKVLFALICIAVAEAKPTENNEDVYINDDLRNFRWTDYDADRGKLPGKKLPLEVLKEMEANARKAGCTRGCLICLSHIKCTPKMKKFIPGRCHTYEGDKESAQGGIGEAIVDIPEIPGFKDLEPMEQFIAQVDLCVDCTTGCLKGLANVQCSDLLKKWLPQRCATFASKIQGQVDKIRGAGGD
modifications: SIGNAL (1)..(17)
notes: Gaussia luciferase mutant
B9: F26R N27D V29E A30G V31I A32D S33N A36N T37A L40R: Gaussia luciferase mutant (protein)
chain: MGVKVLFALICIAVAEAKPTENNEDRDIEGIDNNFNATDRDADRGKLPGKKLPLEVLKEMEANARKAGCTRGCLICLSHIKCTPKMKKFIPGRCHTYEGDKESAQGGIGEAIVDIPEIPGFKDLEPMEQFIAQVDLCVDCTTGCLKGLANVQCSDLLKKWLPQRCATFASKIQGQVDKIKGAGGD
modifications: SIGNAL (1)..(17)
notes: Gaussia luciferase mutant
B10: F26R N27Y V29E A30G A32D S33R A36G T37M L40P: Gaussia luciferase mutant (protein)
chain: B9 chain with D27Y, I31V, N33R, N36G, A37M, R40P
modifications: SIGNAL (1)..(17)
notes: Gaussia luciferase mutant
B11: A30G V31I A32V S33G A36N T37D L40R: Gaussia luciferase mutant (protein)
chain: B9 chain with R26F, D27N, E29V, D32V, N33G, A37D
modifications: SIGNAL (1)..(17)
notes: Gaussia luciferase mutant
B12: F26R V29E A30G V31L A36D T37E L40S K159: Gaussia luciferase mutant (protein)
chain: B9 chain with D27N, I31L, D32A, N33S, N36D, A37E, R40S
B13: F26Y N27Y V29A A30G S33V A36V T37S L40G: Gaussia luciferase mutant (protein)
chain: B9 chain with R26Y, D27Y, E29A, I31V, D32A, N33V, N36V, A37S, R40G
modifications: SIGNAL (1)..(17)
notes: Gaussia luciferase mutant
B14: F26S N27Y V29C A32G S33E A36Q T37G L40T: Gaussia luciferase mutant (protein)
chain: B9 chain with R26S, D27Y, E29C, G30A, I31V, D32G, N33E, N36Q, A37G, R40T
modifications: SIGNAL (1)..(17)
notes: Gaussia luciferase mutant
B15: F26T N27D V29P A30G V31I A32G S33I A36I T37L L40I: Gaussia luciferase mutant (protein)
chain: B9 chain with R26T, E29P, D32G, N33I, N36I, A37L, R40I
modifications: SIGNAL (1)..(17)
notes: Gaussia luciferase mutant

Legend:
Type in all cases: biochemical
Set-up in all cases: key to Activity of mutant relative to wild-type Gaussia luciferase without the signal peptide: ratio of mutant luminescence intensity to wild-type Gaussia luciferase
[1] = Luminescence activity assay of purified Gaussia luciferase mutants on coelenterazine; details: Substrate CTZ (Table 16)
In short: (§1)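 Readout: luminescence intensity, as ratio to signal-peptide-free wild-type enzyme. Enzyme 1 μg/mL, substrate 100 μM stock, 10 μL + 90 μL; buffer 50 mM Tris-HCl pH 8.0, 100 mM NaCl, 0.1% Tween-20.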

[2] = Luminescence activity assay of purified Gaussia luciferase mutants on fluoro-coelenterazine; details: Substrate f-CTZ (Table 16)
Description: In this Example, the protein concentration was determined with a BCA quantitative kit (Thermo Scientific™ Pierce™ BCA Protein Assay Kit) accurately. The purified luciferase obtained in Example 5 was diluted with diluent (50 mM Tris-HCl, pH 8.0, 100 mM NaCl, 0.1% (v/v) Tween-20) to 1 μg/mL. The diluted luciferase, taken for 10 μL, was moved into a black 96-well plate, then added with 90 μL of the substrates coelenterazine, fluoro-coelenterazine or coelenterazine derivative ZS2 (purchased from Biolab) which was diluted into 100 μM with the same diluent, and the luminescence intensity of the plate was read with a self-luminescence module of a microplate reader. The mutation site of the mutant, the measured luminescence intensity, the ratio of luminescence intensities of the advantageous mutants to the wild-type Gaussia luciferase without the signal peptide having the sequence shown in SEQ ID NO: 3 are shown in Table 15. The results of catalytic activity assay of the advantageous mutants relative to the wild-type Gaussia luciferase without the signal peptide having the sequence shown in SEQ ID NO: 3 on substrate coelenterazine are shown in FIG. 6. […] The results of catalytic activity assay of the advantageous mutants relative to the wild-type Gaussia luciferase without the signal peptide having the sequence shown in SEQ ID NO: 3 on substrate fluoro-coelenterazine are shown in FIG. 7.
The new mutant library constructed in Example 7 was screened and tested for substrate specificity. Expression and purification schemes were the same as that in Example 5, and the activity assay scheme was the same as that in Example 6. The respective catalytic activities of combinatorial mutants on coelenterazine, fluoro-coelenterazine or coelenterazine derivative ZS2, and coelenterazine derivative ZS26 (purchased from BIOLAB) were assayed, and comparisons among the substrate specificities of the combinatorial mutants were based on the ratios of catalytic activities on two corresponding substrates.

[3] = Luminescence activity assay of purified Gaussia luciferase mutants on coelenterazine derivative ZS2; details: Substrate ZS2 (Table 16)
In short: as §1

| Molecule | Activity of mutant relative to wild-type Gaussia luciferase without the signal peptide [1] | Activity of mutant relative to wild-type Gaussia luciferase without the signal peptide [2] | Activity of mutant relative to wild-type Gaussia luciferase without the signal peptide [3] |
| --- | --- | --- | --- |
| B1 | 0.071 | 0.086 | 0.116 |
| B2 | 2.527 | 0.520 | 1.065 |
| B3 | 0.198 | 0.763 | 0.082 |
| B4 | 1.921 | 13.108 | 0.064 |
| B5 | 0.000 | 0.007 | 0.001 |
| B6 | 0.094 | 0.936 | 0.068 |
| B7 | 0.750 | 0.479 | 0.452 |
| B8 | 0.072 | 0.065 | 0.063 |
| B9 | 0.053 | 0.067 | 0.044 |
| B10 | 0.152 | 0.172 | 0.147 |
| B11 | 0.138 | 0.615 | 0.116 |
| B12 | 0.000 | 0.009 | 0.001 |
| B13 | 0.219 | 0.192 | 0.177 |
| B14 | 0.119 | 0.143 | 0.126 |
| B15 | 0.231 | 0.210 | 0.224 |
